US20090304718A1 (Boehringer Ingelheim, published 2009)
Blank lines part the entries; values can stand above or below the molecule they belong to.

Legend:
[1] = biological target: human FAP (fibroblast activation protein alpha) expressed on HT1080 clone v1.33 cells (human) (UniProt Q12884); assay: cell ELISA on ethanol-fixed HT1080 v1.33 cells expressing human FAP; rabbit anti-human-IgG-peroxidase, TMB, OD 450 nm
[2] = biological target: T1, human FAP (fibroblast activation protein alpha) expressed on HT1080 clone v1.33 cells (human, UniProt Q12884 1-760); assay: cell-based or functional assay
T1 sequence (looked up): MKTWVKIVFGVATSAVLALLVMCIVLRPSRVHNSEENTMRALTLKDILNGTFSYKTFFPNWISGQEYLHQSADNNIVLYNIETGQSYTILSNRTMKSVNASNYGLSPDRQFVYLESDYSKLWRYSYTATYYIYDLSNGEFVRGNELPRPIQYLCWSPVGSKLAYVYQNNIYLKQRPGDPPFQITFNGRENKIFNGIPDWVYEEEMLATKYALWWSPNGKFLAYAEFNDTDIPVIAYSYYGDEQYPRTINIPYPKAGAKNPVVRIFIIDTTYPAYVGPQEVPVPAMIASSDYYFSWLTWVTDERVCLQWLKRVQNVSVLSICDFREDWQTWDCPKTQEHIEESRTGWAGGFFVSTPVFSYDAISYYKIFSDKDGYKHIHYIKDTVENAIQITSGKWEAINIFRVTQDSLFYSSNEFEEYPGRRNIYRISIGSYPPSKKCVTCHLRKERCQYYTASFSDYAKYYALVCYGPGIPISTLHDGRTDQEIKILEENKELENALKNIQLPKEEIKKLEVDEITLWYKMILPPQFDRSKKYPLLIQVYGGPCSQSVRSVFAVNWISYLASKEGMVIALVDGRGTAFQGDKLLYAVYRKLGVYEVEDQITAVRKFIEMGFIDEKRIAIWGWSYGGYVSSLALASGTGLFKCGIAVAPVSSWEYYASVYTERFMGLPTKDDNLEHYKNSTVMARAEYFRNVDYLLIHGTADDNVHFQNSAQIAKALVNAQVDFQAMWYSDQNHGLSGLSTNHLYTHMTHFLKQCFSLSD

[3] = biological target: T2, murine FAP expressed on HT1080 clone 13.6 cells (mouse, UniProt P97321 1-761); assay: cell ELISA on ethanol-fixed HT1080 13.6 cells expressing murine FAP; goat anti-mouse-Ig-peroxidase, TMB, OD 450 nm
T2 construct: whole, on cells; also called mouse FAP
T2 sequence (looked up): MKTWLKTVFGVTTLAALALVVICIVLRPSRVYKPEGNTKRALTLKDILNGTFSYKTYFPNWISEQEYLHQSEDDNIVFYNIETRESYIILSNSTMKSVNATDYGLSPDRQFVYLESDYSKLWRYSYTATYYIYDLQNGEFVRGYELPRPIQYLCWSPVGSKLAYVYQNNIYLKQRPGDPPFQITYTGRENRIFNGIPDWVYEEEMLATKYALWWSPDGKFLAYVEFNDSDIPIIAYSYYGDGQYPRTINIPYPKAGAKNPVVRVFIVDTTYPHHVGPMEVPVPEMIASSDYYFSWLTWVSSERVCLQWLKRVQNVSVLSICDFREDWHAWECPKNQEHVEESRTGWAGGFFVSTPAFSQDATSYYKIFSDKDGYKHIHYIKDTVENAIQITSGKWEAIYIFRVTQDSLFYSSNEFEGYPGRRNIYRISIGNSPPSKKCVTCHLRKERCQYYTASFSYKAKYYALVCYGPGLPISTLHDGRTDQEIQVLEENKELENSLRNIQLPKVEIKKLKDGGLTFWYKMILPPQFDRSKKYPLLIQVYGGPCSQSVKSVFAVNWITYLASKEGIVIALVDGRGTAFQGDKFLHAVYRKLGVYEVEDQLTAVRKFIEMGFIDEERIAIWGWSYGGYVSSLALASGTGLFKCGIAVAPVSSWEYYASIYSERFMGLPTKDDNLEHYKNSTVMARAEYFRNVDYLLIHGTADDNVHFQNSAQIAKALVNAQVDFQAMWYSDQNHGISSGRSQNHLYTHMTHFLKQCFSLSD
Description: The binding of BIBH1 and MFP5 antibodies and the respective antibody conjugates BIBH1-DM1 and MFP5-DM1 to antigen positive and negative HT1080 cells is determined in a cell-ELISA assay. […] Stable clones are generated as described for HT1080 v1.33 and clones positive for murine FAP are screened with the murine FAP specific monoclonal antibody 3D11 (Niedermeyer et al., 2000). For the cell ELISA 100 μl of cell suspensions at various cell densities are seeded per well of a 96-well microliter plate and the cells are incubated overnight in an incubator (37° C., 5% CO2). On the next day, cells are fixed with 100% ethanol. Dilutions of the antibodies BIBH1 and MFP5 and of the conjugates BIBH1-DM1 and MFP5-DM1 are added in duplicates and incubated for two hours. After washing three times with PBS/Tween, diluted rabbit anti-human-IgG-peroxidase conjugate is added for detection of the BIBH1 antibodies and for detection of the MFP5 antibodies a diluted goat anti-mouse-Ig-peroxidase conjugate is added. After incubation for two hours at RT plates are washed again three times with PBS/Tween and bound anti-FAP-antibodies detected by addition of TMB staining solution. […] A: Binding to HT1080 v1.33 expressing human FAP. The binding affinity of the antibodies is retained after conjugation to DM1. [0114] […] Only the murine specific antibody MFP5 binds. [0115] C: Negative control.

B1: BIBH1-DM1 (protein, INN chains, looked up)
VH: QVQLVQSGAEVKKPGASVKVSCKTSRYTFTEYTIHWVRQAPGQRLEWIGGINPNNGIPNYNQKFKGRVTITVDTSASTAYMELSSLRSEDTAVYYCARRRIAYGYDEGHAMDYWGQGTLVTVSS
VL: DIVMTQSPDSLAVSLGERATINCKSSQSLLYSRNQKNYLAWYQQKPGQPPKLLIFWASTRESGVPDRFSGSGFGTDFTLTISSLQAEDVAVYYCQQYFSYPLTFGQGTKVEIK
modifications: DM1 maytansinoid conjugate
EC50 (read off the curve) [1]: 10 ng Ab/ml

B2: MFP5-DM1 (MFP5-SPP-DM1, disulfide-linked immunoconjugate) (other)
VH: QVQLQQSGAELARPGASVNLSCKASGYTFTNNGINWLKQRTGQGLEWIGEIYPRSTNTLYNEKFKGKATLTADRSSNTAYMELRSLTSEDSAVYFCARTLTAPFAFWGQGTLVTVSA
VL: QIVLTQSPAIMSASPGEKVTMTCSASSGVNFMHWYQQKSGTSPKRWIFDTSKLASGVPARFSGSGSGTSYSLTISSMEAEDAATYYCQQWSFNPPTFGGGTKLEIKR
EC50 (concentration resulting in 50% cytotoxic effect), MTS cytotoxicity assay, 3 days [2]: ~40 pM

Results, then the molecule that gave them:

EC50 (read off the curve) [1]: 8 ng Ab/ml
Molecule: humanized anti-FAP antibody BIBH1 (sibrotuzumab)

EC50 (read off the curve) [3]: ~6 ng Ab/ml
B3: murine monoclonal antibody MFP5 (antibody, mouse IgG2a, V domains shown)
VH: QVQLQQSGAELARPGASVNLSCKASGYTFTNNGINWLKQRTGQGLEWIGEIYPRSTNTLYNEKFKGKATLTADRSSNTAYMELRSLTSEDSAVYFCARTLTAPFAFWGQGTLVTVSA
VL: QIVLTQSPAIMSASPGEKVTMTCSASSGVNFMHWYQQKSGTSPKRWIFDTSKLASGVPARFSGSGSGTSYSLTISSMEAEDAATYYCQQWSFNPPTFGGGTKLEIKR
notes: also called BIA 13; mAbFAP5

EC50, proliferation assay [2]: 29 pM
B4: MFP5-SPDB-DM4 (other)
VH: QVQLQQSGAELARPGASVNLSCKASGYTFTNNGINWLKQRTGQGLEWIGEIYPRSTNTLYNEKFKGKATLTADRSSNTAYMELRSLTSEDSAVYFCARTLTAPFAFWGQGTLVTVSA
VL: QIVLTQSPAIMSASPGEKVTMTCSASSGVNFMHWYQQKSGTSPKRWIFDTSKLASGVPARFSGSGSGTSYSLTISSMEAEDAATYYCQQWSFNPPTFGGGTKLEIKR

EC50, proliferation assay [2]: 22 pM
B5: MFP5-SMCC-DM1 (other)
VH: QVQLQQSGAELARPGASVNLSCKASGYTFTNNGINWLKQRTGQGLEWIGEIYPRSTNTLYNEKFKGKATLTADRSSNTAYMELRSLTSEDSAVYFCARTLTAPFAFWGQGTLVTVSA
VL: QIVLTQSPAIMSASPGEKVTMTCSASSGVNFMHWYQQKSGTSPKRWIFDTSKLASGVPARFSGSGSGTSYSLTISSMEAEDAATYYCQQWSFNPPTFGGGTKLEIKR
